B1: BHLHA9 (protein, UniProt Q7RTU4 1-235, looked up)
Class A basic …: MLRGAPGLGLTARKGAEDSAEDLGGPCPEPGGDSGVLGANGASCSRGEAEEPAGRRRARPVRSKARRMAANVRERKRILDYNEAFNALRRALRHDLGGKRLSKIATLRRAIHRIAALSLVLRASPAPRGPCGHLECHGPAARGDTGDTGASPPPPAGPSLARPDAARPSVPSAPRCASCPPHAPLARPSAVAEGPGLAQASGGSWRRCPGASSAGPPPWPRGYLRSAPGMGHPRS
B2: SP110 (protein, UniProt Q9HB58 1-689, looked up)
Sp110 nuclear body protein: MFTMTRAMEEALFQHFMHQKLGIAYAIHKPFPFFEGLLDNSIITKRMYMESLEACRNLIPVSRVVHNILTQLERTFNLSLLVTLFSQINLREYPNLVTIYRSFKRVGASYEWQSRDTPILLEAPTGLAEGSSLHTPLALPPPQPPQPSCSPCAPRVSEPGTSSQQSDEILSESPSPSDPVLPLPALIQEGRSTSVTNDKLTSKMNAEEDSEEMPSLLTSTVQVASDNLIPQIRDKEDPQEMPHSPLGSMPEIRDNSPEPNDPEEPQEVSSTPSDKKGKKRKRCIWSTPKRRHKKKSLPGGTASSRHGIQKKLKRVDQVPQKKDDSTCNSTVETRAQKARTECARKSRSEEIIDGTSEMNEGKRSQKTPSTPRRVTQGAASPGHGIQEKLQVVDKVTQRKDDSTWNSEVMMRVQKARTKCARKSRLKEKKKEKDICSSSKRRFQKNIHRRGKPKSDTVDFHCSKLPVTCGEAKGILYKKKMKHGSSVKCIRNEDGTWLTPNEFEVEGKGRNAKNWKRNIRCEGMTLGELLKRKNSDECEVCCQGGQLLCCGTCPRVFHEDCHIPPVEAKRMLWSCTFCRMKRSSGSQQCHHVSKTLERQMQPQDQLIRDYGEPFQEAMWLDLVKERLITEMYTVAWFVRDMRLMFRNHKTFYKASDFGQVGLDLEAEFEKDLKDVLGFHEANDGGFWTLP
B3: SP6 (protein, UniProt Q3SY56 1-376, looked up)
Transcription factor Sp6: MLTAVCGSLGSQHTEAPHASPPRLDLQPLQTYQGHTSPEAGDYPSPLQPGELQSLPLGPEVDFSQGYELPGASSRVTCEDLESDSPLAPGPFSKLLQPDMSHHYESWFRPTHPGAEDGSWWDLHPGTSWMDLPHTQGALTSPGHPGALQAGLGGYVGDHQLCAPPPHPHAHHLLPAAGGQHLLGPPDGAKALEVAAPESQGLDSSLDGAARPKGSRRSVPRSSGQTVCRCPNCLEAERLGAPCGPDGGKKKHLHNCHIPGCGKAYAKTSHLKAHLRWHSGDRPFVCNWLFCGKRFTRSDELQRHLQTHTGTKKFPCAVCSRVFMRSDHLAKHMKTHEGAKEEAAGAASGEGKAGGAVEPPGGKGKREAEGSVAPSN
B4: BCL6B (protein, UniProt Q8N143 1-479, looked up)
B-cell CLL/lymphoma 6 member …: MGSPAAPEGALGYVREFTRHSSDVLGNLNELRLRGILTDVTLLVGGQPLRAHKAVLIACSGFFYSIFRGRAGVGVDVLSLPGGPEARGFAPLLDFMYTSRLRLSPATAPAVLAAATYLQMEHVVQACHRFIQASYEPLGISLRPLEAEPPTPPTAPPPGSPRRSEGHPDPPTESRSCSQGPPSPASPDPKACNWKKYKYIVLNSQASQAGSLVGERSSGQPCPQARLPSGDEASSSSSSSSSSSEEGPIPGPQSRLSPTAATVQFKCGAPASTPYLLTSQAQDTSGSPSERARPLPGSEFFSCQNCEAVAGCSSGLDSLVPGDEDKPYKCQLCRSSFRYKGNLASHRTVHTGEKPYHCSICGARFNRPANLKTHSRIHSGEKPYKCETCGSRFVQVAHLRAHVLIHTGEKPYPCPTCGTRFRHLQTLKSHVRIHTGEKPYHCDPCGLHFRHKSQLRLHLRQKHGAATNTKVHYHILGGP
B5: SOX10 (protein, UniProt P56693 1-466, looked up)
Transcription factor SOX-10: MAEEQDLSEVELSPVGSEEPRCLSPGSAPSLGPDGGGGGSGLRASPGPGELGKVKKEQQDGEADDDKFPVCIREAVSQVLSGYDWTLVPMPVRVNGASKSKPHVKRPMNAFMVWAQAARRKLADQYPHLHNAELSKTLGKLWRLLNESDKRPFIEEAERLRMQHKKDHPDYKYQPRRRKNGKAAQGEAECPGGEAEQGGTAAIQAHYKSAHLDHRHPGEGSPMSDGNPEHPSGQSHGPPTPPTTPKTELQSGKADPKRDGRSMGEGGKPHIDFGNVDIGEISHEVMSNMETFDVAELDQYLPPNGHPGHVSSYSAAGYGLGSALAVASGHSAWISKPPGVALPTVSPPGVDAKAQVKTETAGPQGPPHYTDQPSTSQIAYTSLSLPHYGSAFPSISRPQFDYSDHQPSGPYYGHSGQASGLYSAFSYMGPSQRPLYTAISDPSPSGPQSHSPTHWEQPVYTTLSRP
B6: SOX7 (protein, UniProt Q9BT81 1-388, looked up)
Transcription factor SOX-7: MASLLGAYPWPEGLECPALDAELSDGQSPPAVPRPPGDKGSESRIRRPMNAFMVWAKDERKRLAVQNPDLHNAELSKMLGKSWKALTLSQKRPYVDEAERLRLQHMQDYPNYKYRPRRKKQAKRLCKRVDPGFLLSSLSRDQNALPEKRSGSRGALGEKEDRGEYSPGTALPSLRGCYHEGPAGGGGGGTPSSVDTYPYGLPTPPEMSPLDVLEPEQTFFSSPCQEEHGHPRRIPHLPGHPYSPEYAPSPLHCSHPLGSLALGQSPGVSMMSPVPGCPPSPAYYSPATYHPLHSNLQAHLGQLSPPPEHPGFDALDQLSQVELLGDMDRNEFDQYLNTPGHPDSATGAMALSGHVPVSQVTPTGPTETSLISVLADATATYYNSYSVS
B7: STAT5A (protein, UniProt P42229 1-794, looked up)
Signal transducer and …: MAGWIQAQQLQGDALRQMQVLYGQHFPIEVRHYLAQWIESQPWDAIDLDNPQDRAQATQLLEGLVQELQKKAEHQVGEDGFLLKIKLGHYATQLQKTYDRCPLELVRCIRHILYNEQRLVREANNCSSPAGILVDAMSQKHLQINQTFEELRLVTQDTENELKKLQQTQEYFIIQYQESLRIQAQFAQLAQLSPQERLSRETALQQKQVSLEAWLQREAQTLQQYRVELAEKHQKTLQLLRKQQTIILDDELIQWKRRQQLAGNGGPPEGSLDVLQSWCEKLAEIIWQNRQQIRRAEHLCQQLPIPGPVEEMLAEVNATITDIISALVTSTFIIEKQPPQVLKTQTKFAATVRLLVGGKLNVHMNPPQVKATIISEQQAKSLLKNENTRNECSGEILNNCCVMEYHQATGTLSAHFRNMSLKRIKRADRRGAESVTEEKFTVLFESQFSVGSNELVFQVKTLSLPVVVIVHGSQDHNATATVLWDNAFAEPGRVPFAVPDKVLWPQLCEALNMKFKAEVQSNRGLTKENLVFLAQKLFNNSSSHLEDYSGLSVSWSQFNRENLPGWNYTFWQWFDGVMEVLKKHHKPHWNDGAILGFVNKQQAHDLLINKPDGTFLLRFSDSEIGGITIAWKFDSPERNLWNLKPFTTRDFSIRSLADRLGDLSYLIYVFPDRPKDEVFSKYYTPVLAKAVDGYVKPQIKQVVPEFVNASADAGGSSATYMDQAPSPAVCPQAPYNMYPQNPDHVLDQDGEFDLDETMDVARHVEELLRRPMDSLDSRLSPPAGLFTSARGSLS
B8: SSX5 (protein, UniProt O60225 1-188, looked up)
Protein SSX5: MNGDDAFVRRPRVGSQIPEKMQKAFDDIAKYFSEKEWEKMKASEKIIYVYMKRKYEAMTKLGFKATLPPFMRNKRVADFQGNDFDNDPNRGNQVEHPQMTFGRLQGIFPKITPEKPAEEGNDSKGVPEASGPQNNGKQLRPSGKLNTSEKVNKTSGPKRGKHAWTHRVRERKQLVIYEEISDPQEDDE
B9: SSX3 (protein, UniProt Q99909 1-188, looked up)
Protein SSX3: MNGDDTFARRPTVGAQIPEKIQKAFDDIAKYFSKEEWEKMKVSEKIVYVYMKRKYEAMTKLGFKAILPSFMRNKRVTDFQGNDFDNDPNRGNQVQRPQMTFGRLQGIFPKIMPKKPAEEGNVSKEVPEASGPQNDGKQLCPPGKPTTSEKINMISGPKRGEHAWTHRLRERKQLVIYEEISDPEEDDE
B10: SP100 (protein, UniProt P23497 2-879, looked up)
Nuclear autoantigen Sp-100: AGGGGDLSTRRLNECISPVANEMNHLPAHSHDLQRMFTEDQGVDDRLLYDIVFKHFKRNKVEISNAIKKTFPFLEGLRDRDLITNKMFEDSQDSCRNLVPVQRVVYNVLSELEKTFNLPVLEALFSDVNMQEYPDLIHIYKGFENVIHDKLPLQESEEEEREERSGLQLSLEQGTGENSFRSLTWPPSGSPSHAGTTPPENGLSEHPCETEQINAKRKDTTSDKDDSLGSQQTNEQCAQKAEPTESCEQIAVQVNNGDAGREMPCPLPCDEESPEAELHNHGIQINSCSVRLVDIKKEKPFSNSKVECQAQARTHHNQASDIIVISSEDSEGSTDVDEPLEVFISAPRSEPVINNDNPLESNDEKEGQEATCSRPQIVPEPMDFRKLSTFRESFKKRVIGQDHDFSESSEEEAPAEASSGALRSKHGEKAPMTSRSTSTWRIPSRKRRFSSSDFSDLSNGEELQETCSSSLRRGSGSQPQEPENKKCSCVMCFPKGVPRSQEARTESSQASDMMDTMDVENNSTLEKHSGKRRKKRRHRSKVNGLQRGRKKDRPRKHLTLNNKVQKKRWQQRGRKANTRPLKRRRKRGPRIPKDENINFKQSELPVTCGEVKGTLYKERFKQGTSKKCIQSEDKKWFTPREFEIEGDRGASKNWKLSIRCGGYTLKVLMENKFLPEPPSTRKKRILESHNNTLVDPCEEHKKKNPDASVKFSEFLKKCSETWKTIFAKEKGKFEDMAKADKAHYEREMKTYIPPKGEKKKKFKDPNAPKRPPLAFFLFCSEYRPKIKGEHPGLSIDDVVKKLAGMWNNTAAADKQFYEKKAAKLKEKYKKDIAAYRAKGKPNSAKKRVVKAEKSKKKKEEEEDEEDEQEEENEEDDDK
B11: SPZ1 (protein, UniProt Q9BXG8 1-430, looked up)
Spermatogenic leucine zipper …: MASSAKSAEMPTISKTVNPTPDPHQEYLDPRITIALFEIGSHSPSSWGSLPFLKNSSHQVTEQQTAQKFNNLLKEIKDILKNMAGFEEKITEAKELFEETNITEDVSAHKENIRGLDKINEMLSTNLPVSLAPEKEDNEKKQEMILETNITEDVSAHKENIRGLDKINEMLSTNLPVSLAPEKEDNEKKQQMIMENQNSENTAQVFARDLVNRLEEKKVLNETQQSQEKAKNRLNVQEETMKIRNNMEQLLQEAEHWSKQHTELSKLIKSYQKSQKDISETLGNNGVGFQTQPNNEVSAKHELEEQVKKLSHDTYSLQLMAALLENECQILQQRVEILKELHHQKQGTLQEKPIQINYKQDKKNQKPSEAKKVEMYKQNKQAMKGTFWKKDRSCRSLDVCLNKKACNTQFNIHVARKALRGKMRSASSLR
B12: SRY (protein, UniProt Q05738 1-392, looked up)
Sex-determining region Y …: MEGHVKRPMNAFMVWSRGERHKLAQQNPSMQNTEISKQLGCRWKSLTEAEKRPFFQEAQRLKILHREKYPNYKYQPHRRAKVSQRSGILQPAVASTKLYNLLQWDRNPHAITYRQDWSRAAHLYSKNQQSFYWQPVDIPTGHLQQQQQQQQQQQFHNHHQQQQQFYDHHQQQQQQQQQQQQFHDHHQQKQQFHDHHQQQQQFHDHHHHHQEQQFHDHHQQQQQFHDHQQQQQQQQQQQFHDHHQQKQQFHDHHHHQQQQQFHDHQQQQQQFHDHQQQQHQFHDHPQQKQQFHDHPQQQQQFHDHHHQQQQKQQFHDHHQQKQQFHDHHQQKQQFHDHHQQQQQFHDHHQQQQQQQQQQQQQFHDQQLTYLLTADITGWKGIKHCTGPDPEPF

System: HEK293FT cells transfected with TF library
Experiment: Screening of TF condensates based on fluorescent puncta
Format: cell-based
Conditions: Figure 1B numerical data; TF library screen, one value per transcriptional factor
Outline: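 Condensate formation is scored as Alexa 488-labelled puncta after Flag- or GAL4-tag immunostaining of fixed HEK293FT cells expressing individual TFs, with a 12 h glucose-free or glucose-containing culture preceding fixation.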

Molecule | Z score of condensed fraction
B1 | -1.033
B2 | -0.422
B3 | 2.974
B4 | -0.2442
B5 | -0.1457
B6 | -0.1184
B7 | -0.6398
B8 | 0.09353
B9 | 0.2674
B10 | -0.9758
B11 | 0.06851
B12 | -0.331

From publication PMC11574045, “A cofactor-induced repressive type of transcription factor condensation can be induced by synthetic peptides to suppress tumorigenesis” (The EMBO Journal, 2024)
